According to US20220259593A1, “CONTROL OF MAMMALIAN GENE DOSAGE USING CRISPR” (The Regents of the University of California, priority 2019, published 2022):

Test system: K562 CRISPRi cells
Experiment: Constant region variant library pooled growth screen, K562
Type: cell-based, human
Settings: sgRNA constant region variants
In short: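 Cells were selected with puromycin for 2 days and then kept in RPMI-1640 spinner cultures, with duplicates handled separately. Targeting sequences comprised 3 sgRNAs per essential gene for 10 genes plus six non-targeting controls. Activities were normalized against pairing with the unmodified scaffold.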

[1] = activity relative to the un-modified constant region cr995
[2] = activity relative to the original, un-modified constant region cr995

B1: cr159 (nucleic acid)
guide: GTTTAAGAGCTAAGCTGGAAACAGCATAGCTAGTTTAAATAAGGCTAGTCCGTTATCAACTTGAAAAAGTGGCACCGAGTCGGTGCT
modifications: listed as DNA, chemistry not fully specified
[1]
  Mean relative activity: 0.9739

B2: cr800 (nucleic acid)
guide: GTTTAAGAGCTAAGCTGGAAACAGCATAGCAAGTTTAAATAAGGTTAATCCGTTATCATCTTGAAAAAGAGACACCGAGTCGGTGTT
modifications: listed as DNA, chemistry not fully specified
[1]
  Mean relative activity: 0.9728

B3: cr831 (nucleic acid)
guide: GTTTAAGAGCTAAGCTGGAAACAGCATAGCAAGTTTAAATAAGGCTAGTCCGTTATCAATTTGAAAAAATGGCACCGAGTCGGTGCT
modifications: listed as DNA, chemistry not fully specified
[1]
  Mean relative activity: 0.962

B4: cr205 (nucleic acid)
guide: GTTTAAGAGCTAAGCTGGAAACAGCATAGCAAGTTTAAATAAGGCTAGTCCGTTATCAATTTGAAAAAATGGGACCGAGTCGGTCCT
modifications: listed as DNA, chemistry not fully specified
[1]
  Mean relative activity: 0.9515

B5: cr835 (nucleic acid)
guide: GTTTAAGAGCTAAGCTGGAAACAGCATAGCAAGTTTAAATAAGGCTAGTCCGTTATCAACTTGAAAAAGTGGCACCGAGTCGGCGCT
modifications: listed as DNA, chemistry not fully specified
[1]
  Mean relative activity: 0.9515

B6: cr161 (nucleic acid)
guide: GTTTAAGAGCTAAGCTGGAAACAGCATAGCAAGTTTAAATAAGGCTAGTCCGTTATCAACTTGAACAAGTGGCACCGACTCGGTGCT
modifications: listed as DNA, chemistry not fully specified
[1]
  Mean relative activity: 0.9671

B7: cr646 (nucleic acid)
guide: GTTTAAGAGCTAAGCTGGAAACAGCATAGCAAGTTTAAATAAGGCTAGTCCGTTATCAAATTGAAAAATTGGCTCCGAGTCGGAGCT
modifications: listed as DNA, chemistry not fully specified
[1]
  Mean relative activity: 0.962

B8: cr644 (nucleic acid)
guide: GTTTAAGAGCTAAGCTGGAAACAGCATTGCAAGTTTAAATAAGGCTAGTCCGTTATCAACTTGAAAAAGTGGCACCGAGTCGGTGCT
modifications: listed as DNA, chemistry not fully specified
[1]
  Mean relative activity: 0.9694

B9: cr131 (nucleic acid)
guide: GTTTAAGAGCTAAGCTGGAAACAGCATAGCAAGTTTAAATAAGGCTAGTCCGTTATCAACTTGAGAAAGTGGCACAGAGTCTGTGCT
modifications: chemistry not given here
[1]
  Mean relative activity: 0.96

B10: cr416 (nucleic acid)
guide: GTTTAAGAGCTAAGCTGGAAACAGCATAGCAAGTTTAAATAAGGCTAGTCCGTTATCAACTTGAAAAAGTGGCGCCAAGTTGGCGCT
modifications: listed as DNA, chemistry not fully specified
[1]
  Mean relative activity: 0.9574

B11: cr938 (nucleic acid)
guide: GTTTAAGAGCTAAGCTGGAAACAGCATAGCAAGTTTAAATAAGGCTGGTCCGTTATCAACTTGAAAAAGTGGCACCGAGTCGGTGCT
modifications: listed as DNA, chemistry not fully specified
[1]
  Mean relative activity: 0.9596

B12: cr287 (nucleic acid)
guide: GTTTAAGAGCTAAGCTGGAAACAGCATAGCAAGTTTAAATAAGGCTAGTCCGTTATCAACTTGATAAAGTGGCACCGACTCGGTGCT
modifications: listed as DNA, chemistry not fully specified
[1]
  Mean relative activity: 0.9686

B13: cr306 (nucleic acid)
guide: GTTTAAGAGCTAAGCTGGAAACAGCATAGCAAGTTTAAATAAGGCTTGTCCGTTATCAACTTGAAAAAGTGGCACCGTGTCGGTGCT
modifications: listed as DNA, chemistry not fully specified
[1]
  Mean relative activity: 0.9647

B14: cr944 (nucleic acid)
guide: GTTTAAGAGCTAAGCTGGAAACAGCATAGCAAGTTTAAATAAGGCTAGTCCGTTATCAACTCGAAAGAGTGGTACCAAGTTGGTACT
modifications: listed as DNA, chemistry not fully specified
[2]
  Mean relative activity: 1.065

B15: cr748 (nucleic acid)
guide: GTTTAAGAGCTAAGCTGGAAACAGCATAGCAAGTTTAAATAAGGCTAGTCCGTTATCAACTCGAGAGAGTGGCACCGAGTCGGTGCT
modifications: listed as DNA, chemistry not fully specified
[2]
  Mean relative activity: 1.146

B16: cr994 (nucleic acid)
guide: GTTTAAGAGCTAAGCTGGAAACAGCATAGCAAGTTTAAATAAGGCTAGTCCGTTATCAACTTGAAAAAGTGGCACCGATTCGGTGCT
modifications: listed as DNA, chemistry not fully specified
[1]
  Mean relative activity: 0.9671

B17: cr372 (nucleic acid)
guide: GTTTAAGAGCTAAGCTGGAAACAGCATAGCAAGTTTAAATAAGGCGAGTCCGTTATCAACTTGAAAAAGTGGCACCGAGTCGGTGCT
modifications: listed as DNA, chemistry not fully specified
[1]
  Mean relative activity: 0.9545

B18: cr267 (nucleic acid)
guide: GTTTAAGAGCTAAGCTGCAAACAGCATAGCAAGTTTAAATAAGGCTAGTCCGTTATCAACTTGAAAAAGTGGCACCGAGTCGGTGCT
modifications: listed as DNA, chemistry not fully specified
[1]
  Mean relative activity: 0.9552

B19: cr397 (nucleic acid)
guide: GTTTAAGAGCTAAGCTGGAAACAGCATAGCAAGTTTAAATAAGGCTAGTCCGTTATCAAATTGAAAAATTGGCACCGAGTCGGTGCT
modifications: listed as DNA, chemistry not fully specified
[1]
  Mean relative activity: 0.9508

B20: cr360 (nucleic acid)
guide: GTTTAAGAGCTAAGCTGGAAACAGCATAGCAAGTTTAAATAAGGCTAGTCCGTTATCAACTTGAAAAAGTGGCATCGAGTCGATGCT
modifications: listed as DNA, chemistry not fully specified
[2]
  Mean relative activity: 1.066

B21: cr102 (nucleic acid)
guide: GTTTAAGAGCTAAGCTGGAAACAGCATAGCAAGTTTAAATAAGGCTAGTCCGTTATCAATTTGAAAAAATGGAACCGAGTCGGTTCT
modifications: listed as DNA, chemistry not fully specified
[1]
  Mean relative activity: 0.9651

B22: cr825 (nucleic acid)
guide: GTTTAAGAGCTAAGCTGGAAACAGCATAGCAAGTTTAAATAAGGCTAGTCCGTTATCAACTTGAAAAAGTGGCTGCGAGTCGCAGCT
modifications: listed as DNA, chemistry not fully specified
[1]
  Mean relative activity: 0.9691

B23: cr181 (nucleic acid)
guide: GTTTAAGAGCTAAGCTGGAAACAGCATAGCAAGTTTAAATAAGGTTAATCCGTTATCAATTTGAAAAAATGGCGCCGAGTCGGCGCT
modifications: listed as DNA, chemistry not fully specified
[1]
  Mean relative activity: 0.9506

B24: cr707 (nucleic acid)
guide: GTTTAAGAGCTAAGCTGGAAACAGCATAGCAAGTTTAAATAAGGCTAGTCCGTTATCAACTTGAAAAAGTGGCACCGTGTCGGTGCT
modifications: listed as DNA, chemistry not fully specified
[1]
  Mean relative activity: 0.9632

B25: cr299 (nucleic acid)
guide: GTTTAAGAGCTAAGCTGGAAACAGCATAGCAAGTTTAAATAAGGCTAGTCCGTTATCAACTTGGGAAAGTGGCACCGAGTCGGTGCT
modifications: listed as DNA, chemistry not fully specified
[1]
  Mean relative activity: 0.9718

B26: cr167 (nucleic acid)
guide: GTTTAAGAGCTAAGCTGGAAACAGCATAGCAAGTTTAAATAAGGCTAGTCCGTTATCAACCTGAAAAAGTGGCACCGAGTCGGTGCT
modifications: listed as DNA, chemistry not fully specified
[1]
  Mean relative activity: 0.9545

B27: cr264 (nucleic acid)
guide: GTTTAAGAGCTAAGCTGGAAACAGCATAGCAAGTTTAAATAAGGCTAGTCCGTTATCAACTTGAAAATGTGGCACCGAGTCGGTGCT
modifications: listed as DNA, chemistry not fully specified
[1]
  Mean relative activity: 0.9513
